“And” between values parts separate entries of the source, which are not always exact repeats. Equal entries are not always repeated. Where two headings read alike, the source gives them in different places. Positions of bridges follow the written chain, without caps; N, C: chain ends. Non-standard residues stand in square brackets, D forms with d. Residues, ends and D or L forms follow the SMILES beside them. *: point of attachment. DOTA = O=C(O)CN1CCN(CC(=O)O)CCN(CC(=O)*)CCN(CC(=O)O)CC1; dPhe(4-NHCONH2) = NC(=O)Nc1ccc(C[C@@H](N)C(=O)O)cc1; Phe(4-Cl) = N[C@@H](Cc1ccc(Cl)cc1)C(=O)O
Assays:
[1] = Biodistribution: optimum injected molar amount; settings: female, mouse, in vivo, iv, total radioactivity, 2 h p.i.
[2] = system: AR42J tumor-bearing mice; test: Biodistribution: optimum injected molar amount; settings: 2 h p.i.
[3] = system: AR42J tumors; test: Preclinical therapy study in AR42J tumor-bearing mice; assay type: in vivo
[4] = Assessment of early side effects in therapy mice; settings: endpoint of therapy
Protocol: Early side effects were assessed based on the RBW of each mouse which was monitored every second day. When an endpoint was reached or at the end of the study (after 49 days), relevant organs and tissues were collected, weighed and put into relation to the brain mass and body weight of the respective mouse. This allowed comparison of organ-to-brain and organ-to-body mass weight ratios. In addition, blood plasma parameters from blood collected immediately after euthanasia were measured.
RBW, organ mass and mass ratios at the endpoint: The RBW was monitored every second day. Mice were euthanized when a predefined endpoint criterion was reached or when the study was terminated at Day 49. RBWs, organ masses, organ mass ratios (kidney-to-brain, liver-to-brain and spleen-to-brain) and organ mass to body weight ratios (kidney-to-body mass, liver-to-body mass and spleen-to-body mass) were analyzed for significance using a one-way ANOVA test with a Tukey’s multiple comparisons post-test. A p-value of <0.05 was considered as statistically significant.
Blood plasma chemistry: Immediately before euthanasia of the mice that reached the endpoint, blood was sampled from the retrobulbar vein. The values of creatinine (CRE), blood urea nitrogen (BUN), alkaline phosphatase (ALP), total bilirubin (TBIL) and albumin (ALB) were determined in the plasma after centrifugation of the blood using a dry chemistry analyzer (DRI-CHEM 4000i, FUJIFILM, Japan). The average blood plasma parameters of each group were analyzed for significance using a one-way ANOVA test with a Tukey’s multiple comparisons post-test. A p-value of <0.05 was considered as statistically significant.

[5] = n-octanol/PBS distribution coefficient (logD), shake-flask method; assay type: physicochemical; settings: n-octanol/PBS pH 7.4
Protocol: An aliquot of the radiolabeled peptide (0.5 MBq, 25 µL) was added to a mixture of 1475 µL PBS pH 7.4 and 1500 µL n-octanol. The respective tubes were vortexed for 60 sec and centrifuged for 6 min at 2500 rpm followed by the measurement of the activity concentration in a defined volume of each layer using a γ-counter (Perkin Elmer, Wallac Wizard 1480). The logD values were calculated as the logarithm of the ratio of counts per minute (cpm) measured in the n-octanol phase relative to the cpm measured in the PBS pH 7.4 phase. The experiments were performed three times with five replicates for each radiopeptide and the logD value was expressed as the average ± standard deviation (SD) of the values obtained in each experiment. […] A p value <0.05 was considered statistically significant.

[6] = in vivo; settings: female, athymic nude (CD-1 Foxn-1nu), mouse, iv, 1 nmol/mouse, total radioactivity
Protocol: Five-week-old female, athymic nude mice (CD-1 Foxn-⅟nu) were obtained from Charles River Laboratories (Sulzfeld, Germany). Mice were subcutaneously inoculated with AR42J tumor cells (5 × 10^6 cells in 100 µL PBS) for SPECT/CT imaging, biodistribution and therapy studies. The SPECT/CT and biodistribution studies were performed 10-14 days after tumor cell inoculation when the tumor size reached a volume of ~250 mm^3.
The mice were sacrificed at 2 h and 24 h post injection (p.i.). Selected tissues and organs were collected, weighed, and the accumulated activity was counted in a γ-counter. The decay-corrected data were listed as the percentage of the injected activity per gram of tissue mass (% IA/g). The data were analyzed for significance using a two-way ANOVA with Tukey’s multiple comparison post-tests. A p-value of <0.05 was considered statistically significant.

SMILES: C[C@@H](O)[C@@H]1NC(=O)[C@H](CCCCN)NC(=O)[C@@H](Cc2c[nH]c3ccccc23)NC(=O)[C@H](Cc2ccc(O)cc2)NC(=O)[C@@H](NC(=O)[C@@H](Cc2ccccc2)NC(=O)CN2CCN(CC(=O)O)CCN(CC(=O)O)CCN(CC(=O)O)CC2)CSSC[C@@H](C(=O)N[C@H](CO)[C@@H](C)O)NC1=O [[^161Tb]Tb-DOTATOC, metal not drawn]
- tissue uptake at 2 h ([1]; CD-1 Foxn-1nu athymic nude, 0.04 nmol/mouse, Biodistribution: Adrenals, 0.040 nmol/mouse): 0.65 ± 0.08 %ID/g
- tissue uptake at 2 h ([1]; CD-1 Foxn-1nu athymic nude, 0.04 nmol/mouse, Biodistribution: Kidneys, 0.040 nmol/mouse): 9 ± 2 %ID/g
- tissue uptake at 2 h ([1]; CD-1 Foxn-1nu athymic nude, 0.2 nmol/mouse, Biodistribution: Heart, 0.20 nmol/mouse): < 0.1 %ID/g
- tissue uptake at 2 h ([1]; athymic nude (CD-1 Foxn-1nu), 0.04 nmol/mouse, Biodistribution: AR42J Tumor, 0.040 nmol/mouse): 16 ± 4 %ID/g
- tissue uptake at 2 h ([1]; athymic nude (CD-1 Foxn-1nu), 0.04 nmol/mouse, Biodistribution: Blood, 0.040 nmol/mouse): < 0.1 %ID/g
- tissue uptake at 2 h ([1]; athymic nude (CD-1 Foxn-1nu), 0.04 nmol/mouse, Biodistribution: Heart, 0.040 nmol/mouse): < 0.1 %ID/g
- tissue uptake at 2 h ([1]; athymic nude (CD-1 Foxn-1nu), 0.04 nmol/mouse, Biodistribution: Muscle, 0.040 nmol/mouse): < 0.1 %ID/g
- tissue uptake at 2 h ([1]; athymic nude (CD-1 Foxn-1nu), 0.2 nmol/mouse, Biodistribution: AR42J Tumor, 0.20 nmol/mouse): 14 ± 1 %ID/g
- tissue uptake at 2 h ([1]; athymic nude (CD-1 Foxn-1nu), 0.2 nmol/mouse, Biodistribution: Blood, 0.20 nmol/mouse): < 0.1 %ID/g
- tissue uptake at 2 h ([1]; athymic nude (CD-1 Foxn-1nu), 0.2 nmol/mouse, Biodistribution: Muscle, 0.20 nmol/mouse): < 0.1 %ID/g
- tissue uptake at 2 h ([1]; athymic nude (CD-1 Foxn-1nu), 1 nmol/mouse, Biodistribution: AR42J Tumor, 1.0 nmol/mouse): ~8 %ID/g
- tissue uptake at 2 h ([1]; athymic nude (CD-1 Foxn-1nu), kidney uptake, irrespective of the applied setting (0.04-1.0 nmol)): ~10 %ID/g

SMILES: C[C@@H](O)[C@@H]1NC(=O)[C@H](CCCCN)NC(=O)[C@@H](Cc2c[nH]c3ccccc23)NC(=O)[C@H](Cc2ccc(O)cc2)NC(=O)[C@@H](NC(=O)[C@@H](Cc2ccccc2)NC(=O)CN2CCN(CC(=O)O)CCN(CC(=O)O)CCN(CC(=O)O)CC2)CSSC[C@@H](C(=O)N[C@H](CO)[C@@H](C)O)NC1=O [[^177Lu]Lu-DOTATOC] [metal not drawn]
- Biodistribution: AR42J Tumor ([2]; 0.040 nmol/mouse): ~ 17 % IA/g
- Biodistribution: Blood ([2]; 0.040 nmol/mouse): ≤0.10 % IA/g
- Biodistribution: Heart ([2]; 0.040 nmol/mouse): ≤0.10 % IA/g
- Biodistribution: Kidneys ([2]; 0.040 nmol/mouse): 10 ± 2 % IA/g
- Biodistribution: Muscle ([2]; 0.040 nmol/mouse): ≤0.10 % IA/g
- Tu-to-adr (tumor-to-adrenals) ([2]; 0.040 nmol/mouse): 28 ± 2
- Tu-to-blood ([2]; 0.040 nmol/mouse): 213 ± 41
- Tu-to-kidney ([2]; 0.040 nmol/mouse): 1.9 ± 0.3
- Tu-to-liver ([2]; 0.040 nmol/mouse): 100 ± 8
- Tu-to-lung (tumor-to-lungs) ([2]; 0.040 nmol/mouse): 17 ± 3
- Tu-to-panc (tumor-to-pancreas) ([2]; 0.040 nmol/mouse): 9.7 ± 1.8
- Tu-to-sto (tumor-to-stomach) ([2]; 0.040 nmol/mouse): 11 ± 2
- Biodistribution: Blood ([2]; 0.20 nmol/mouse): <0.10 % IA/g
- Biodistribution: Femur ([2]; 0.20 nmol/mouse): 0.10 ± 0.01 % IA/g
- Biodistribution: Heart ([2]; 0.20 nmol/mouse): <0.10 % IA/g
- Biodistribution: Kidneys ([2]; 0.20 nmol/mouse): 10 ± 3 % IA/g
- Biodistribution: Muscle ([2]; 0.20 nmol/mouse): <0.10 % IA/g
- Tu-to-adr (tumor-to-adrenals) ([2]; 0.20 nmol/mouse): 47 ± 29
- Tu-to-blood ([2]; 0.20 nmol/mouse): 235 ± 60
- Tu-to-kidney ([2]; 0.20 nmol/mouse): 1.9 ± 0.4
- Tu-to-liver ([2]; 0.20 nmol/mouse): 118 ± 24
- Tu-to-lung (tumor-to-lungs) ([2]; 0.20 nmol/mouse): 27 ± 6
- Tu-to-panc (tumor-to-pancreas) ([2]; 0.20 nmol/mouse): 10 ± 2
- Tu-to-sto (tumor-to-stomach) ([2]; 0.20 nmol/mouse): 15 ± 4
- Biodistribution: AR42J Tumor ([2]; 1.0 nmol/mouse): 8.9 ± 1.5 % IA/g
- Biodistribution: Adrenals ([2]; 1.0 nmol/mouse): 0.28 ± 0.08 % IA/g
- Biodistribution: Blood ([2]; 1.0 nmol/mouse): <0.10 % IA/g
- Biodistribution: Femur ([2]; 1.0 nmol/mouse): <0.10 % IA/g
- Biodistribution: Heart ([2]; 1.0 nmol/mouse): <0.10 % IA/g
- Biodistribution: Intestines ([2]; 1.0 nmol/mouse): 0.20 ± 0.05 % IA/g
- Biodistribution: Kidneys ([2]; 1.0 nmol/mouse): 11 ± 1 % IA/g
- Biodistribution: Liver ([2]; 1.0 nmol/mouse): 0.26 ± 0.07 % IA/g
- Biodistribution: Lung ([2]; 1.0 nmol/mouse): 0.37 ± 0.06 % IA/g
- Biodistribution: Muscle ([2]; 1.0 nmol/mouse): <0.10 % IA/g
- Biodistribution: Pancreas ([2]; 1.0 nmol/mouse): 0.80 ± 0.13 % IA/g
- Biodistribution: Spleen ([2]; 1.0 nmol/mouse): 0.15 ± 0.03 % IA/g
- Biodistribution: Stomach ([2]; 1.0 nmol/mouse): 0.65 ± 0.11 % IA/g
- Tu-to-adr (tumor-to-adrenals) ([2]; 1.0 nmol/mouse): 29 ± 3
- Tu-to-lung (tumor-to-lungs) ([2]; 1.0 nmol/mouse): 25 ± 3
- Tu-to-panc (tumor-to-pancreas) ([2]; 1.0 nmol/mouse): 13 ± 1
- Tu-to-sto (tumor-to-stomach) ([2]; 1.0 nmol/mouse): 15 ± 5
- kidney uptake ([2]; irrespective of the applied setting (0.04-1.0 nmol)): ~ 10%
- Median survival ([3]; 2 x 10 MBq, 0.2 nmol): 19.5 days
- tumor growth delay ([3]; 2 x 10 MBq, 0.2 nmol, Day 0 and 7): 6.0 ± 4.4 days
- Time frame of euthanasia ([3]; 2 x 10 MBq, 0.2 nmol, end of study = 49 days): 12 to 22 days
- tumor doubling time ([3]; regrowth phase): 3.4 ± 0.8 days
- ALB (albumin) [4]: 24 ± 5 g/L
- ALP (alkaline phosphatase) [4]: 77 ± 8 U/L
- BUN (blood urea nitrogen) [4]: 6.3 ± 0.9 mmol/L
- CRE (plasma creatinine) [4]: <18 (n=5) µmol/L
- TBIL (total bilirubin) [4]: < 3 µmol/L and 4 ± 1 µmol/L
- LogD [5]: -3.1 ± 0.2

SMILES: C[C@@H](O)[C@@H]1NC(=O)[C@H](CCCCN)NC(=O)[C@@H](Cc2ccc(NC(N)=O)cc2)NC(=O)[C@H](Cc2ccc(O)cc2)NC(=O)[C@H](NC(=O)[C@H](Cc2ccc(Cl)cc2)NC(=O)CN2CCN(CC(=O)O)CCN(CC(=O)O)CCN(CC(=O)O)CC2)CSSC[C@@H](C(=O)N[C@H](Cc2ccc(O)cc2)C(N)=O)NC1=O [metal not drawn] ({DOTA}-[Phe(4-Cl)][dC]Y[dPhe(4-NHCONH2)]KTC[dY]-NH2; disulfide 2-7)
- Tu-to-adr (tumor-to-adrenals) ([2]; 0.040 nmol/mouse): 11 ±4
- Tu-to-blood ([2]; 0.040 nmol/mouse): 289 ± 45
- Tu-to-kidney ([2]; 0.040 nmol/mouse): 4.3 ± 1.2
- Tu-to-adr (tumor-to-adrenals) ([2]; 0.20 nmol/mouse): 34 ± 9.2
- Tu-to-blood ([2]; 0.20 nmol/mouse): 492 ± 102
- Tu-to-kidney ([2]; 0.20 nmol/mouse): 4.3 ± 0.4
- Tu-to-liver ([2]; 0.20 nmol/mouse): 90 ± 11
- Biodistribution: Blood ([2]; 1.0 nmol/mouse): ≤0.10 % IA/g
- Biodistribution: Heart ([2]; 1.0 nmol/mouse): ≤0.10 % IA/g
- Biodistribution: Muscle ([2]; 1.0 nmol/mouse): ≤0.10 % IA/g
- Tu-to-adr (tumor-to-adrenals) ([2]; 1.0 nmol/mouse): 36 ± 6
- ALB (albumin) [4]: 23 ± 1 g/L
- ALP (alkaline phosphatase) [4]: 66 ± 5 U/L
- BUN (blood urea nitrogen) [4]: 8.2 ± 1.9 mmol/L and 8.2 ± 1.8 mmol/L
- CRE (plasma creatinine) [4]: <18 (n=5) µmol/L and 19 (n=1) µmol/L
- TBIL (total bilirubin) [4]: <3 (n=4) µmol/L and 4 ± 1 (n=2) µmol/L
- LogD ([5]; read-out: LogD): -2.5 ± 0.1
- tissue uptake at 24 h ([6]; intestines): 0.14 ± 0.03 %ID/g
- tissue uptake at 2 h ([6]; kidneys): 11 ± 1 %ID/g

Source: patent publication US20230165981A1, “[161Tb]-BASED RADIOPEPTIDES” (priority 2021, published 2023)
